In US20220056091A1 (BRIGHT PEAK THERAPEUTICS, published 2022):

Tests used:
Assay in all cases: cell-based or functional assay
[1] = molecular target: T1, Modified IL-18 polypeptide of SEQ ID NO: 22 (E06K, K53A, C38S, C68S, C76S, C127S, K70C) (human, UniProt Q14116 37-193)
T1 chain: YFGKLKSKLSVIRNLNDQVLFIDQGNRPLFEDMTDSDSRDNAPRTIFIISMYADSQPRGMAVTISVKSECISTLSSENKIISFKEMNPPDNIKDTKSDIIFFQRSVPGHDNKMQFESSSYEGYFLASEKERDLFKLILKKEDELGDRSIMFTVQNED

[2] = molecular target: Modified IL-18 polypeptide of SEQ ID NO: 6 (E06K) (human, UniProt Q14116 37-193)
[3] = molecular target: T2, Modified IL-18 polypeptide of SEQ ID NO: 14 (E06K, K53A, S55A, M51G) (human, UniProt Q14116 37-193)
T2 chain: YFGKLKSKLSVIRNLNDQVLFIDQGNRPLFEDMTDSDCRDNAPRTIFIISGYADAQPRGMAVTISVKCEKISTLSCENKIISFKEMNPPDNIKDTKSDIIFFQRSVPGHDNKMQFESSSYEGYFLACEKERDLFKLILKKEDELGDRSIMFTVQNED

[4] = molecular target: T3, Modified IL-18 polypeptide of SEQ ID NO: 23 (K53A, T63A, C38S, C68S, C76S, C127S, K70C) (human, UniProt Q14116 37-193)
T3 chain: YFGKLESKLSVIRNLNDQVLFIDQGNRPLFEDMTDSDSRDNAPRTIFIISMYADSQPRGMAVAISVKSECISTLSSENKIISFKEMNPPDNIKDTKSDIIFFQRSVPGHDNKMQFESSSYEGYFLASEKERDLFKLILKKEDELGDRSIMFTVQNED

[5] = molecular target: T4, Modified IL-18 polypeptide of SEQ ID NO: 16 (C38S, C68S, C76S, C127S, K70C) (human, UniProt Q14116 37-193)
T4 chain: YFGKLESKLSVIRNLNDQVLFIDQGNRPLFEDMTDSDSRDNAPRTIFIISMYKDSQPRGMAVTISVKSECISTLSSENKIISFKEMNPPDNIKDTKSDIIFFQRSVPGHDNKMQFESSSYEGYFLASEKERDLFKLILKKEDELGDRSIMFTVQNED

[6] = molecular target: T5, IL-18 polypeptide of SEQ ID NO: 1 (native sequence, human IL-18 37-193) (human, UniProt Q14116 37-193)
T5 sequence: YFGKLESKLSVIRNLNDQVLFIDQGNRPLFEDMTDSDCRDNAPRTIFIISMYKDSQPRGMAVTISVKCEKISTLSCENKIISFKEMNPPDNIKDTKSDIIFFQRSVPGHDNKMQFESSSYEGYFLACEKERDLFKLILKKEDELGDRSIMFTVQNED

B1: Fc fused human IL-18BP isoform a (IL-18BPa) (Fc fusion, UniProt O95998 31-194, looked up, not shown: a dimerising Fc or GST)
chain: TPVSQTTTAATASVRSTKDPCPSQPPVFPAAKQCPALEVTWPEVEVPLNGTLSLSCVACSRFPNFSILYWLGNGSFIEHLPGRLWEGSTSRERGSTGTQLCKALVLEQLTPALHSTNFSCVLVDPEQVVQRHVVLAQLWAGLRATLPPTQEALPSSHSSPQQQG
- IC50 (nM), IL-18BPa inhibition of IFNγ release by NK-92 cells (1 nM IL-18 analyte) [1]: 23.5 nM
- IC50 (nM), IL-18BPa inhibition of IFNγ release by NK-92 cells (1 nM IL-18 analyte) [2]: 7.79 nM
- IC50 (nM), IL-18BPa inhibition of IFNγ release by NK-92 cells (1 nM IL-18 analyte) [3]: 0.189 nM
- IC50 (nM), IL-18BPa inhibition of IFNγ release by NK-92 cells (1 nM IL-18 analyte) [4]: > 1000 nM
- IC50 (nM), IL-18BPa inhibition of IFNγ release by NK-92 cells (1 nM IL-18 analyte) [5]: 0.114 nM
- IC50 (read off the curve); IFNγ production by NK-92 cells stimulated with IL-18 WT [6]: ~1 nM
